In general, stoichiometry N refers to the number of molecules, sites or subunits per partner or assembly.

The target of assay [1] is AuraA, dimethylallyl tryptophan synthase (DMATS) family prenyltransferase (Penicillium solitum HDN11-131).
The target is the same in assay [2]. The assay can be described thus: cryo-EM structure.

Like-named read-outs stand apart in the source and are kept apart here.

For the substance “AuraA, dimethylallyl tryptophan synthase (DMATS) family prenyltransferase (enzyme)”, the stoichiometry N in assay [1] and in assay [2] was 4 throughout.

Values taken from PMC11696170.
